The results in this text go back to US9289478B2, “Formulations of tumour-associated peptides binding to human leukocyte antigen (HLA) class I or class II molecules for vaccine” (IMMATICS BIOTECHNOLOGIES GMBH, priority 2008, dated 2016).

A short description of data set [1]: HPLC-assay for stability of peptides in lyophilised formulation on storage for 3 months (Example 4). The class given is physicochemical. The following applies: for stability of peptides in formulation, 1 M: 1 month; for stability of peptides in formulation, 2 M: 2 months; for stability of peptides in formulation, 3 M: 3 months. As to the method:
(§1) Identity, purity and peptide content are determined by analytical RP-HPLC chromatography. Detection wavelength was 220 nm.

Data set [2] in a line: HPLC-assay for in-use stability after reconstitution with 4.2% sodium hydrogen carbonate solution (Example 3, peptides SEQ ID NO 11-23). The data set is classed as physicochemical. As to the method:
For clinical trials the above described formulation is dissolved in 700 μl sodium hydrogen carbonate (4.2%). To dissolve the lyophilisate, the vial and the diluent shall be shaken vigorously for 1 minute, check whether solution is clear, otherwise continue shaking for another minute until the solution is clear. Administration of 500 μL of the solution has to occur within 1 h after reconstitution. Dissolved lyophilisate may be stored aseptically at room temperature for up to 1 hour following reconstitution.
as §1

In the case of “LTFGDVVAV (listed as Homo sapiens) [FABP7-001]”, the “stability of peptides in formulation, 1 M” value (“stability of peptides … 1 M” for short) in data set [1] (+5° C. +/- 3° C.) was 99.08 % of Initial; in data set [1] (+25° C. +/- 2° C.), 98.43 % of Initial; in data set [1] (-20° C. +/- 5° C.) it was 99.09 % of Initial. In addition, the “stability of peptides in formulation, 2 M” value (“stability of peptides … 2 M” below) is 98.15 % of Initial in data set [1] (+5° C. +/- 3° C.), 97.71 % of Initial in data set [1] (+25° C. +/- 2° C.) and 97.60 % of Initial in data set [1] (-20° C. +/- 5° C.). Moreover, the “stability of peptides in formulation, 3 M” value (shortened to “stability of peptides … 3 M”) in data set [1] (+5° C. +/- 3° C.) is 98.66 % of Initial; in data set [1] (+25° C. +/- 2° C.), 98.67 % of Initial; in data set [1] (-20° C. +/- 5° C.), 98.39 % of Initial. Moreover, the “stability of peptides in formulation, INITIAL” value (“stability of peptides … INITIAL” for short) in data set [1] (+5° C. +/- 3° C.), in data set [1] (+25° C. +/- 2° C.) and in data set [1] (-20° C. +/- 5° C.) was 100.0% each time. Moreover, the “in-use stability, Peptide [%]” value in data set [2] (+Mannitol/Lutrol, 2h) was 100.9%; in data set [2] (+Mannitol/Lutrol, 4h), 100.7%; in data set [2] (+Mannitol/Lutrol, 6h), 100.6%; in data set [2] (+Mannitol/Lutrol, Initial) it was 100.0%; in data set [2] (no excipients, 2h), 100.5%; in data set [2] (no excipients, 4h), 100.9%. For the same sequence, the “in-use stability, Peptide [%]” value in data set [2] (no excipients, 6h) is 96.3%; in data set [2] (no excipients, Initial) it was 100.0%.
As to “AIIDGVESV (listed as Homo sapiens) [PTP-003, Protein tyrosine phosphatase, receptor-type, Z polypeptide 1 peptide]”, the entries for the “stability of peptides … 1 M” value in data set [1] (+5° C. +/- 3° C.), in data set [1] (+25° C. +/- 2° C.) and in data set [1] (-20° C. +/- 5° C.) were 99.07 % of Initial, 98.29 % of Initial and 99.11 % of Initial, respectively. The “stability of peptides … 2 M” value in data set [1] (+5° C. +/- 3° C.) was 97.95 % of Initial; in data set [1] (+25° C. +/- 2° C.), 97.11 % of Initial; in data set [1] (-20° C. +/- 5° C.), 97.48 % of Initial. The results for the “stability of peptides … 3 M” value in data set [1] (+5° C. +/- 3° C.), in data set [1] (+25° C. +/- 2° C.) and in data set [1] (-20° C. +/- 5° C.) were 98.68 % of Initial, 98.29 % of Initial and 98.57 % of Initial, respectively. For the same sequence, the “stability of peptides … INITIAL” value in data set [1] (+5° C. +/- 3° C.), in data set [1] (+25° C. +/- 2° C.) and in data set [1] (-20° C. +/- 5° C.) was 100.0% each time. Besides, the “in-use stability, Peptide [%]” value in data set [2] (+Mannitol/Lutrol, 2h) came out at 100.3%; in data set [2] (+Mannitol/Lutrol, 4h), 100.5%; in data set [2] (+Mannitol/Lutrol, 6h) it was 100.1%; in data set [2] (+Mannitol/Lutrol, Initial), 100.0%; in data set [2] (no excipients, 2h), 100.4%; in data set [2] (no excipients, 4h), 100.9%. In addition, the “in-use stability, Peptide [%]” value in data set [2] (no excipients, 6h) came out at 96.1%; in data set [2] (no excipients, Initial), 100.0%.
As for “GLWHHQTEV (listed as Homo sapiens) [NRCAM-001, Neuronal cell adhesion molecule peptide]”, the “stability of peptides … 1 M” value in data set [1] (+5° C. +/- 3° C.) is 99.13 % of Initial; in data set [1] (+25° C. +/- 2° C.) it was 97.90 % of Initial; in data set [1] (-20° C. +/- 5° C.), 99.23 % of Initial. Further, the “stability of peptides … 2 M” value in data set [1] (+5° C. +/- 3° C.) is 98.17 % of Initial; in data set [1] (+25° C. +/- 2° C.), 96.73 % of Initial; in data set [1] (-20° C. +/- 5° C.), 97.86 % of Initial. For the same sequence, the “stability of peptides … 3 M” value in data set [1] (+5° C. +/- 3° C.) was 98.79 % of Initial; in data set [1] (+25° C. +/- 2° C.), 97.59 % of Initial; in data set [1] (-20° C. +/- 5° C.), 98.91 % of Initial. Besides, the “stability of peptides … INITIAL” value in data set [1] (+5° C. +/- 3° C.), in data set [1] (+25° C. +/- 2° C.) and in data set [1] (-20° C. +/- 5° C.) was 100.0% in each case. Further, the “in-use stability, Peptide [%]” value was determined as 99.9% in data set [2] (+Mannitol/Lutrol, 2h); 100.0% in data set [2] (+Mannitol/Lutrol, 4h); 99.5% in data set [2] (+Mannitol/Lutrol, 6h); 100.0% in data set [2] (+Mannitol/Lutrol, Initial); 99.8% in data set [2] (no excipients, 2h); 100.2% in data set [2] (no excipients, 4h). Further, the “in-use stability, Peptide [%]” value stood at 95.6% in data set [2] (no excipients, 6h) and 100.0% in data set [2] (no excipients, Initial).
